Measured values from patent US20200317768A1 (published 2020).

T1: cynomolgus monkey FcγRIIIaS extracellular domain with C-terminal His-tag (cynomolgus monkey, UniProt Q8SPW2 21-206 at identity 1.00))
T1 construct: also called cyno FcgRIIIaS; cynoFcγRIIIaS
T1 chain: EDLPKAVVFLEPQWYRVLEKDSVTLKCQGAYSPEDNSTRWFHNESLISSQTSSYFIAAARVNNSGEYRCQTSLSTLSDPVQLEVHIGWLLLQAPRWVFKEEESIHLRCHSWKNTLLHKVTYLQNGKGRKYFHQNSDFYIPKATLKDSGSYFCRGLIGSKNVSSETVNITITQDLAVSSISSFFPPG

T2: cynomolgus monkey FcγRIIb extracellular domain with C-terminal His-tag (cynomolgus monkey)
T2 construct: also called cyno FcgRIIb; cynoFcγRIIb
T2 chain: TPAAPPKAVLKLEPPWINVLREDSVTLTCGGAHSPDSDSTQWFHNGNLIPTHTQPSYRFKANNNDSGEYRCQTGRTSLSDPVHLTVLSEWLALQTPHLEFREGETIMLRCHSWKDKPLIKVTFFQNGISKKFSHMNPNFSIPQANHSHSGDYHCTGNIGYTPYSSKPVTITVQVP

T3: cynomolgus monkey FcγRIIa2 extracellular domain with C-terminal His-tag (cynomolgus monkey)
T3 construct: also called cyno FcgRIIa2; cynoFcγRIIa2
T3 chain: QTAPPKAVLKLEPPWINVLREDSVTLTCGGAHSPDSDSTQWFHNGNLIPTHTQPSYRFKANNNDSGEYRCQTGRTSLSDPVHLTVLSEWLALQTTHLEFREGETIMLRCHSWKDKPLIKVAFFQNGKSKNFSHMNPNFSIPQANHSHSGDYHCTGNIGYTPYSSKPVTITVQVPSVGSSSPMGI

T4: human FcγRIIb extracellular domain with C-terminal His-tag (human, UniProt P31994 43-217)
T4 construct: also called human FcgRIIb
T4 sequence: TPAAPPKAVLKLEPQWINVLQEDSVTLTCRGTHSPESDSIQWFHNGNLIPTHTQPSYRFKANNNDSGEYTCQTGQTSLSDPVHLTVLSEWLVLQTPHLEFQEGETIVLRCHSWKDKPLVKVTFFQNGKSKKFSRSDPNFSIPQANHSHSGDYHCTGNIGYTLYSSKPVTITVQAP

T5: human FcγRIIaR extracellular domain with C-terminal His-tag (human, UniProt P12318 34-217)
T5 construct: also called human FcgRIIaR; FcγRIIa (type R)
T5 chain: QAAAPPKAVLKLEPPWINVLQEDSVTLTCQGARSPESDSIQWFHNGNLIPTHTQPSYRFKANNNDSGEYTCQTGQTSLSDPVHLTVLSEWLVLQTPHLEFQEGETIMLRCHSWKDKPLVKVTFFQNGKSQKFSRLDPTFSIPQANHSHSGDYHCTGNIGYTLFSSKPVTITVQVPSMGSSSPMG

T6: cynomolgus monkey FcγRIIa1 extracellular domain with C-terminal His-tag (cynomolgus monkey)
T6 construct: also called cyno FcgRIIa1; cynoFcγRIIa1
T6 chain: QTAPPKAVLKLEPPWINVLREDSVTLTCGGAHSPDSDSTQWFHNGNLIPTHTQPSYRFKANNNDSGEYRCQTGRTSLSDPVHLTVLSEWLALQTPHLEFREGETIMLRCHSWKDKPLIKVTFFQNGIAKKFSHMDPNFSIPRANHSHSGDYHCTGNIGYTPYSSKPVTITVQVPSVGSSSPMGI

T7: cynomolgus monkey FcγRIIa3 extracellular domain with C-terminal His-tag (cynomolgus monkey)
T7 construct: also called cyno FcgRIIa3; cynoFcγRIIa3
T7 chain: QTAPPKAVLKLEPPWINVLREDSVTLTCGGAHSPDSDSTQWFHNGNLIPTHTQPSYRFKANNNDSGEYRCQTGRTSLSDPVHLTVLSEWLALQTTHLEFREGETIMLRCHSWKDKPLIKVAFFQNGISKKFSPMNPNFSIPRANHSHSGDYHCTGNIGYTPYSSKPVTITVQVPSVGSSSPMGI


Experiments:
Test in all cases: SPR (BIACORE); KD of SG1 / KD of variant;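 note: relative to parent M103205H795-SG1 carrying the SG1 human heavy chain constant region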
[1] = biological target: T1, cynomolgus monkey FcγRIIIaS …
[2] = biological target: T2, cynomolgus monkey FcγRIIb extracellular …
[3] = biological target: T8, human FcγRIIIaV extracellular domain with C-terminal His-tag (human, UniProt P08637 17-208)
T8 construct: also called human FcgRIIIaV

[4] = biological target: T3, cynomolgus monkey FcγRIIa2 …
[5] = biological target: T4, human FcγRIIb extracellular domain with …
[6] = biological target: T5, human FcγRIIaR extracellular domain …
[7] = biological target: T6, cynomolgus monkey FcγRIIa1 …
[8] = biological target: T7, cynomolgus monkey FcγRIIa3 …

T8 sequence (P08637 17-208 F176V): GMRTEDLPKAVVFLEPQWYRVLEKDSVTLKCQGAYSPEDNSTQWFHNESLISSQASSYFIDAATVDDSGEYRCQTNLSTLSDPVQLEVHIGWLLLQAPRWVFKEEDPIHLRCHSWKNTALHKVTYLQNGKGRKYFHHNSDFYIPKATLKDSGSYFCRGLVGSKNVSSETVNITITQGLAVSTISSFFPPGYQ

| Binder | KD fold (SG1 = 1) [1] | KD fold (SG1 = 1) [2] | KD fold (SG1 = 1) [3] | KD fold (SG1 = 1) [4] | KD fold (SG1 = 1) [5] | KD fold (SG1 = 1) [6] | KD fold (SG1 = 1) [7] | KD fold (SG1 = 1) [8] |
| --- | --- | --- | --- | --- | --- | --- | --- | --- |
| M103205H795-MY209/M103202L889-SK1 (antibody, human IgG1, kappa, Substitutions introduced into M103205H795-SG1, expressed with M103202L889-SK1 as light chain; EU numbering) heavy: QVTLKESGPVLVKPTETLTLTCTVSGIDLSHDDISWVRQAPGKGLEWVGIISYAGSTYYASWAKGRLTISKDTSKNQVVLTMTNMDPVDTATYYCARGVPAYSHGGDLWGQGTLVTVSSASTKGPSVFPLAPSSKSTSGGTAALGCLVKDYFPEPVTVSWNSGALTSGVHTFPAVLQSSGLYSLSSVVTVPSSSLGTQTYICNVNHKPSNTKVDKKVEPKSCDKTHTCPPCPAPELLNGPSVFLFPPKPKDTLMISRTPEVTCVVVDVSDEDPEVKFNWYVDGVEVHNAKTKPREELYNSTYRVVSVLTVLHQDWLNGKEYKCKVSNTALPKPIEKTISKAKGQPREPQVYTLPPSREEMTKNQVSLTCLVKGFYPSDIAVEWESNGQPENNYKTTPPVLDSDGSFFLYSKLTVDKSRWQQGNVFSCSVMHEALHNHYTQKSLSLSP light: DIVMTQSPATLSLSPGERATLSCTSSQSVYHANWLSWFQQKPGQPPKLLIYWASTLAYGVPSRFSGSGSGTDFTLTISSLQPEDAATYYCAGGYGGGRYAFGQGTKVEIKRTVAAPSVFIFPPSDEQLKSGTASVVCLLNNFYPREAKVQWKVDNALQSGNSQESVTEQDSKDSTYSLSSTLTLSKADYEKHKVYACEVTHQGLSSPVTKSFNRGEC | 0.16 fold | 9.5 fold | 0.06 fold | 7.4 fold | 9.2 fold | 1.3 fold | 5.1 fold | 8.9 fold |
| M103205H795-MY339/M103202L889-SK1 (antibody, human IgG1, kappa, Substitutions introduced into M103205H795-SG1, expressed with M103202L889-SK1 as light chain; EU numbering) heavy: QVTLKESGPVLVKPTETLTLTCTVSGIDLSHDDISWVRQAPGKGLEWVGIISYAGSTYYASWAKGRLTISKDTSKNQVVLTMTNMDPVDTATYYCARGVPAYSHGGDLWGQGTLVTVSSASTKGPSVFPLAPSSKSTSGGTAALGCLVKDYFPEPVTVSWNSGALTSGVHTFPAVLQSSGLYSLSSVVTVPSSSLGTQTYICNVNHKPSNTKVDKKVEPKSCDKTHTCPPCPAPELLLGPSVFLFPPKPKDTLMISRTPEVTCVVVDVSDEDPEVKFNWYVDGVEVHNAKTKPREEQYNSTYRVVSVLTVLHQDWLNGKEYKCKVSNTALPKPIEKTISKAKGQPREPQVYTLPPSREEMTKNQVSLTCLVKGFYPSDIAVEWESNGQPENNYKTTPKVLDSDGSFFLYSKLTVDKSRWQQGNVFSCSVMHEALHNHYTQKSLSLSP light: DIVMTQSPATLSLSPGERATLSCTSSQSVYHANWLSWFQQKPGQPPKLLIYWASTLAYGVPSRFSGSGSGTDFTLTISSLQPEDAATYYCAGGYGGGRYAFGQGTKVEIKRTVAAPSVFIFPPSDEQLKSGTASVVCLLNNFYPREAKVQWKVDNALQSGNSQESVTEQDSKDSTYSLSSTLTLSKADYEKHKVYACEVTHQGLSSPVTKSFNRGEC | 0.47 fold | 2.4 fold | 0.14 fold | 1.7 fold | 1.5 fold | 1.7 fold | 0.9 fold | 1.7 fold |
| M103205H795-MY283/M103202L889-SK1 (antibody, human IgG1, kappa, Substitutions introduced into M103205H795-SG1, expressed with M103202L889-SK1 as light chain; EU numbering) heavy: QVTLKESGPVLVKPTETLTLTCTVSGIDLSHDDISWVRQAPGKGLEWVGIISYAGSTYYASWAKGRLTISKDTSKNQVVLTMTNMDPVDTATYYCARGVPAYSHGGDLWGQGTLVTVSSASTKGPSVFPLAPSSKSTSGGTAALGCLVKDYFPEPVTVSWNSGALTSGVHTFPAVLQSSGLYSLSSVVTVPSSSLGTQTYICNVNHKPSNTKVDKKVEPKSCDKTHTCPPCPAPELLTGPSVFLFPPKPKDTLMISRTPEVTCVVVDVSDEDPEVKFNWYVDGVEVHNAKTKPREELYNSTYRVVSVLTVLHQDWLNGKEYKCKVSNKALPKPIEKTISKAKGQPREPQVYTLPPSREEMTKNQVSLTCLVKGFYPSDIAVEWESNGQPENNYKTTPPVLDSDGSFFLYSKLTVDKSRWQQGNVFSCSVMHEALHNHYTQKSLSLSP light: DIVMTQSPATLSLSPGERATLSCTSSQSVYHANWLSWFQQKPGQPPKLLIYWASTLAYGVPSRFSGSGSGTDFTLTISSLQPEDAATYYCAGGYGGGRYAFGQGTKVEIKRTVAAPSVFIFPPSDEQLKSGTASVVCLLNNFYPREAKVQWKVDNALQSGNSQESVTEQDSKDSTYSLSSTLTLSKADYEKHKVYACEVTHQGLSSPVTKSFNRGEC | 0.16 fold | 4.3 fold | 0.14 fold | 3.2 fold | 2.6 fold | 1.1 fold | 2.3 fold | 3.5 fold |

The remaining lines, values ahead:

| KD fold (SG1 = 1) [1] | KD fold (SG1 = 1) [2] | KD fold (SG1 = 1) [3] | KD fold (SG1 = 1) [4] | KD fold (SG1 = 1) [5] | KD fold (SG1 = 1) [6] | KD fold (SG1 = 1) [7] | KD fold (SG1 = 1) [8] | Binder |
| --- | --- | --- | --- | --- | --- | --- | --- | --- |
| 0.38 fold | 3 fold | 0.12 fold | 1.8 fold | 2.6 fold | 2.6 fold | 1.2 fold | 1.9 fold | M103205H795-MY341/M103202L889-SK1 (antibody, human IgG1, kappa, Substitutions introduced into M103205H795-SG1, expressed with M103202L889-SK1 as light chain; EU numbering) heavy: QVTLKESGPVLVKPTETLTLTCTVSGIDLSHDDISWVRQAPGKGLEWVGIISYAGSTYYASWAKGRLTISKDTSKNQVVLTMTNMDPVDTATYYCARGVPAYSHGGDLWGQGTLVTVSSASTKGPSVFPLAPSSKSTSGGTAALGCLVKDYFPEPVTVSWNSGALTSGVHTFPAVLQSSGLYSLSSVVTVPSSSLGTQTYICNVNHKPSNTKVDKKVEPKSCDKTHTCPPCPAPELLLGPSVFLFPPKPKDTLMISRTPEVTCVVVDVSDEDPEVKFNWYVDGVEVHNAKTKPREELYNSTYRVVSVLTVLHQDWLNGKEYKCKVSNTALPKPIEKTISKAKGQPREPQVYTLPPSREEMTKNQVSLTCLVKGFYPSDIAVEWESNGQPENNYKTTPKVLDSDGSFFLYSKLTVDKSRWQQGNVFSCSVMHEALHNHYTQKSLSLSP light: DIVMTQSPATLSLSPGERATLSCTSSQSVYHANWLSWFQQKPGQPPKLLIYWASTLAYGVPSRFSGSGSGTDFTLTISSLQPEDAATYYCAGGYGGGRYAFGQGTKVEIKRTVAAPSVFIFPPSDEQLKSGTASVVCLLNNFYPREAKVQWKVDNALQSGNSQESVTEQDSKDSTYSLSSTLTLSKADYEKHKVYACEVTHQGLSSPVTKSFNRGEC |
| 0.16 fold | 1.6 fold | 0.05 fold | 1 fold | 1.4 fold | 1.3 fold | 0.7 fold | 0.7 fold | M103205H795-MY340/M103202L889-SK1 (antibody, human IgG1, kappa, Substitutions introduced into M103205H795-SG1, expressed with M103202L889-SK1 as light chain; EU numbering) heavy: QVTLKESGPVLVKPTETLTLTCTVSGIDLSHDDISWVRQAPGKGLEWVGIISYAGSTYYASWAKGRLTISKDTSKNQVVLTMTNMDPVDTATYYCARGVPAYSHGGDLWGQGTLVTVSSASTKGPSVFPLAPSSKSTSGGTAALGCLVKDYFPEPVTVSWNSGALTSGVHTFPAVLQSSGLYSLSSVVTVPSSSLGTQTYICNVNHKPSNTKVDKKVEPKSCDKTHTCPPCPAPELLLGPSVFLFPPKPKDTLMISRTPEVTCVVVDVSDEDPEVKFNWYVDGVEVHNAKTKPREELYNSTYRVVSVLTVLHQDWLNGKEYKCKVSNKALPKPIEKTISKAKGQPREPQVYTLPPSREEMTKNQVSLTCLVKGFYPSDIAVEWESNGQPENNYKTTPKVLDSDGSFFLYSKLTVDKSRWQQGNVFSCSVMHEALHNHYTQKSLSLSP light: DIVMTQSPATLSLSPGERATLSCTSSQSVYHANWLSWFQQKPGQPPKLLIYWASTLAYGVPSRFSGSGSGTDFTLTISSLQPEDAATYYCAGGYGGGRYAFGQGTKVEIKRTVAAPSVFIFPPSDEQLKSGTASVVCLLNNFYPREAKVQWKVDNALQSGNSQESVTEQDSKDSTYSLSSTLTLSKADYEKHKVYACEVTHQGLSSPVTKSFNRGEC |
